Laboratory results reported in the supplement of paper PMC12042874.
± gives the uncertainty stated by the source.

Test: amyloid nucleation score (Sup35N fusion, yeast selection) (log enrichment); library NNK2; higher = more nucleation; inactive = no reads after selection
Method in brief: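 Peptides of 20 random codons fused to Sup35N were expressed in psi-negative yeast, induced 24 hours with 100 μM copper sulfate, then grown 7 days at 30°C on medium lacking adenine and uracil. Input and output plasmid inserts were Illumina-sequenced. Nucleation score is the DiMSum log enrichment of output over input reads, centred on the mode score of non-aggregating sequences, excluding sequences with under 100 input reads. Random libraries had three technical output replicates.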

Going from YFLHCQPLVWDTLRVRQMVR to YFMLRSVTL, the amyloid nucleation score rises from -0.062 ± 0.35 to 3.75 ± 0.1.

Compared with YFRHVVAGHLRCCLLVSARD, YFRSYLLHTLLG is lower in amyloid nucleation score: 2.7 ± 0.13 for the first, 0.479 ± 0.45 for the second.

YFRWGLSSKASLWHVRWALG and YFSKMS are within error of each other in amyloid nucleation score: 0.409 ± 0.8 for the first, -0.817 ± 0.43 for the second.

YFSQQSEGSALCVLKHWVKS and YFSRWLFFYECKGDNLLRRE are within error of each other in amyloid nucleation score: 0.253 ± 0.42 for the first, -0.512 ± 0.76 for the second.

First: YFTGSPVVHRLLSYNLFLRF
Second: YFTWQHLRNSRMWV
The amyloid nucleation score of the first is higher: 5.726 ± 0.039 for the first, 3.34 ± 0.11 for the second.

YFVEYSW and YFWSRLRFVCRDRSGKNYCS are within error of each other in amyloid nucleation score: 0.542 ± 0.47 for the first, -0.138 ± 0.76 for the second.

YGKYSFSWEIRCLCEMTTKN and YGLALFTRI are within error of each other in amyloid nucleation score: -0.608 ± 0.78 for the first, -0.347 ± 0.44 for the second.

YGLWIKS and YGNCVHHVRGGLHAYRDHNC are within error of each other in amyloid nucleation score: -0.127 ± 1.1 for the first, -0.137 ± 0.33 for the second.

First: YGRLRLVA
Second: YGRVITGCLCQCIGDDGCGD
The amyloid nucleation score of the first is lower: -0.637 ± 0.54 for the first, 6.595 ± 0.039 for the second.

YGSKTRRVWGLRGYRDEGYR and YGSQISLTKEARQEKDTSGS are within error of each other in amyloid nucleation score: -0.413 ± 0.74 for the first, -0.815 ± 0.34 for the second.

Compared with YGVFRSESRPTCLKSLDRMK, YGVYGHFKTLGNLTNRDVVS is lower in amyloid nucleation score: 0.575 ± 0.34 for the first, -1.36 ± 0.75 for the second.

YIAIEYLFSFRGFRGTGVMG and YIDRVTYRLSTGSTMEAWSA are within error of each other in amyloid nucleation score: 0.034 ± 0.63 for the first, 0.688 ± 0.15 for the second.

Compared with YIFFSEKISTMSYSDKLRMA, YIHVYVLMLGLNRQF is lower in amyloid nucleation score: 5.89 ± 0.083 for the first, 4.74 ± 0.071 for the second.

First: YINVALWIMSFSGSVWGKEP
Second: YIQLGWGLSKTWSHLTGELA
The amyloid nucleation score of the first is higher: 4.55 ± 0.064 for the first, 2.34 ± 0.14 for the second.

YIRLATYSLYALDWAVRKNR and YIRLHYGGVRRKVFTTILVI are within error of each other in amyloid nucleation score: -0.548 ± 1.1 for the first, -0.26 ± 0.45 for the second.

Compared with YISNYPNVRLALDPTTCAGM, YITLQLVASRRRS is higher in amyloid nucleation score: -0.452 ± 0.48 for the first, 6.186 ± 0.045 for the second.

Compared with YIVCKDSTSQVYYFSSDNFY, YIVRNLVLLI is higher in amyloid nucleation score: 4.09 ± 0.095 for the first, 5.577 ± 0.036 for the second.

Compared with YIVSSDLTGWGARRSCDFMA, YIWRLLLLRGCTVNFMSCNM is higher in amyloid nucleation score: 0.571 ± 0.47 for the first, 5.62 ± 0.067 for the second.

First: YKACRH
Second: YKDEGINEPYTVRTVHKLTT
The amyloid nucleation score of the first is higher: 3.89 ± 0.055 for the first, 0.215 ± 0.76 for the second.

YKKGGLFDC and YKRHVGLRRNTLRQGYLLWF are within error of each other in amyloid nucleation score: -1.38 ± 0.39 for the first, -0.547 ± 1.1 for the second.

YKRIHSSKFRPDYSHMV and YLDRGYRGGFPFGKNVWTDG are within error of each other in amyloid nucleation score: -0.403 ± 1 for the first, -1.36 ± 0.78 for the second.

YLGDTEQECAF and YLGNLSPQRLRCFISLWIVQ are within error of each other in amyloid nucleation score: -1.37 ± 0.3 for the first, -1.49 ± 1.1 for the second.

YLGWVVCFRHCLIGH and YLMRVRYSLCGLVVSVVAQD are within error of each other in amyloid nucleation score: 0.145 ± 0.56 for the first, 0.856 ± 0.34 for the second.

YLNWCSSSRNYLSMLYWPMV and YLRYLWSRQPCSAGSQVACR are within error of each other in amyloid nucleation score: -0.148 ± 0.5 for the first, -0.145 ± 1.1 for the second.

Compared with YLSLNGVHYCIGSITIPSQR, YLSLYGNGC is lower in amyloid nucleation score: 8.06 ± 0.083 for the first, -0.627 ± 1.1 for the second.

First: YLSTFCGVFIYLVNIPLGRA
Second: YLSVYCFMPVWDKWYRS
The amyloid nucleation score of the first is higher: 4.48 ± 0.058 for the first, -1.57 ± 0.38 for the second.

YLTLEMLAVDE and YLVRMRYGAM are within error of each other in amyloid nucleation score: -0.52 ± 1.1 for the first, 0.763 ± 0.43 for the second.

YMALCLTAL and YMDSKSNLARTFVRVCGLLG are within error of each other in amyloid nucleation score: 0.367 ± 0.47 for the first, 0.097 ± 1.1 for the second.

YMFMIRSGFV and YMFRDQVWYMTYKDYGHGIR are within error of each other in amyloid nucleation score: -0.376 ± 0.37 for the first, -0.249 ± 1.1 for the second.

YMHSICLFIVDNKIDYLRGY and YMLRIRTMSVPVFPVGFLGL are within error of each other in amyloid nucleation score: 0.541 ± 0.74 for the first, -0.275 ± 0.56 for the second.

Compared with YMRMKW, YNAWSSWYLGVLRPIGCCNG is higher in amyloid nucleation score: 3.46 ± 0.079 for the first, 9.703 ± 0.046 for the second.

First: YNCGTQRYLVFNNESNSFFS
Second: YNDVCLCNGSLGWKLVLE
The amyloid nucleation score of the first is higher: 3.18 ± 0.071 for the first, -0.177 ± 1 for the second.

Going from YNKNSKFLGRFDCSLFI to YNLCSSCNIQWWCSRMHQQK, the amyloid nucleation score rises from -1.04 ± 1.1 to 8.858 ± 0.055.

Compared with YNPCLSRSHSKCLRTWLECR, YNPVPFL is lower in amyloid nucleation score: 1.26 ± 0.44 for the first, -0.788 ± 0.39 for the second.

First: YNSLVRMRTRYIGR
Second: YNVGALASVSRFRDGFGLS
The amyloid nucleation score of the first is lower: 0.025 ± 0.46 for the first, 1.57 ± 0.1 for the second.

Going from YNVTTMYNYYLICISLATMY to YNWGNASSSGVKPEPGGQPT, the amyloid nucleation score falls from 7.09 ± 0.08 to 0.696 ± 0.27.

Compared with YNYLAMPQMLMEYFISVVVS, YPDIYGFEKRIDSPSNLGML is lower in amyloid nucleation score: 2.05 ± 0.089 for the first, 0.433 ± 0.6 for the second.

For YFRCVASCVT, the amyloid nucleation score was “inactive”.
For YFYYRFGHDVVF, the amyloid nucleation score was “inactive”.
In the case of YGVEAECLEKNAALLCYNID, the amyloid nucleation score is reported as “inactive”.
In the case of YHHIV, the amyloid nucleation score is reported as “inactive”.
With YIGEFGFILIPLRSFSPIPC the amyloid nucleation score was “inactive”.
In the case of YIIGNVRNVRLWFRLSMNEV, the amyloid nucleation score is reported as “inactive”.
For YIKFIFCP, the amyloid nucleation score was “inactive”.
For YKGEFFYWFKCVLYYKGNT, the amyloid nucleation score was “inactive”.
In the case of YKVCRVFLVIYIHDFEWVVD, the amyloid nucleation score is reported as “inactive”.
For YLSWHNFVYRLVYIYSGYFN, the amyloid nucleation score was “inactive”.
With YMTTNRKPLDFYQHVYLMKV the amyloid nucleation score was “inactive”.
With YNAVA the amyloid nucleation score was “inactive”.
